Assay [1] addresses C-terminal truncated Entamoeba histolytica ornithine decarboxylase (EhODCΔ15) (Entamoeba histolytica). Description: crystal structure; sitting drop, 20% PEG 3350, 0.2 M LiCl, pH 6.8, 20°C; P212121, four molecules per asymmetric unit; molecular replacement with human ODC (PDB 2ON3); apo-enzyme.
Assay [2] has the same target. Description: SEC; HiLoad 16/60 Superdex 200, purified protein at 5 mg/ml injected, 0.5 ml/min; elution compared with Gel Filtration HMW Calibration kit markers; eluted at 74 ml. (In general: SEC sorts molecules by how far they enter the pores of the column.)

The term stoichiometry N denotes the number of molecules, sites or subunits per partner or assembly.

As to “C-terminal truncated Entamoeba histolytica ornithine decarboxylase (EhODCΔ15) (enzyme)”, the stoichiometry N in assay [1] is 4; in assay [2], 2.

The values above are taken from paper PMC3543441.
